Results: PMC7092869 (Biochemical and Biophysical Research Communications, 2018)

Molecular target: the molecule itself
Test: SEC + AUC

B1: HCoV-229E fusion core (FC1), HR1-linker-HR2 single chain (domain or fragment)
chain: ENQKILAASFNKAMTNIVDAFTGVNDAITQTSQALQTVATALNKIQDVVNQQGNSLNHLTSQLRQNFQLVPRGSGGSGGSGGLEVLFQGPDLVVEQYNQTILNLTSEISTLENKSAELNYTVQKLQTLIDNINSTLVDLKWL
stoichiometry N: 3
